This is an account of results in US20130295118A1 (CELLERANT THERAPEUTICS, published 2013).

Where a chain is given by its changes, count along the chain named.

T1: human C type Lectin Like molecule 1 (CLL-1) on cells (human, UniProt Q5QGZ9 1-265)
T1 sequence: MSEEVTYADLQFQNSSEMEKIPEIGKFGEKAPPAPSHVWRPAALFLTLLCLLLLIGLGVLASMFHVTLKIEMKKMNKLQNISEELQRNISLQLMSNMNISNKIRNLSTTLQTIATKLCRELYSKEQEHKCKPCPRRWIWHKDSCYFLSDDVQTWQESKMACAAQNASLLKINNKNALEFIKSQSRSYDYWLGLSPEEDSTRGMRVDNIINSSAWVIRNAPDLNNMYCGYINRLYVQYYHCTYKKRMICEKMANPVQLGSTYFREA

T2: C lectin domain of CLL-1 expressed in 293T cells (human, UniProt Q5QGZ9 140-249)
T2 sequence: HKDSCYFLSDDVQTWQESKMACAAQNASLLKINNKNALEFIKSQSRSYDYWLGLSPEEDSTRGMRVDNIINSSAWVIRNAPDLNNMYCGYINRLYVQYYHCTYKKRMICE

T3: biotinylated CLL-1 (hCLL-1) (human, UniProt Q5QGZ9 65-265, limits assumed, biotinylated (site not stated))
T3 sequence: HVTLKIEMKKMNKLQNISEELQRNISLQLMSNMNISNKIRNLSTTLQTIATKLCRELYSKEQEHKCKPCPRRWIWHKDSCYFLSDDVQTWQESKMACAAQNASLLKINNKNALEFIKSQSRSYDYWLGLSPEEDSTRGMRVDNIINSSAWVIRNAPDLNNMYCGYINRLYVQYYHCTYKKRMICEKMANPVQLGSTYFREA

B1: human chimeric CLL-1 antibody ChiM26 (antibody, V domains shown)
VH: EVQLQQSGPELVKPGASVKMSCKASGYTFTSYFIHWVKQKPGQGLEWIGFINPYNDGSKYNEKFKGKATLTSDKSSSTAYMELSSLTSEDSAVYYCTRDDGYYGYAMDYWGQGTSVTVSS
VL: DIQMTQSPSSLSASLGERVSLTCRATQELSGYLSWLQQKPDGTIKRLIYAASTLDSGVPKRFSGNRSGSDYSLTISSLESEDFADYYCLQYAIYPYTFGGGTKLEIKR
B2: human chimeric CLL-1 antibody ChiM31 (antibody, V domains shown)
VH: EVQLQQSGPELVKPGASVKMSCKASGYTFTSYVMHWVKQKPGQGLEWIGYINPYNDGTKYNEKFKGKATLTSDTSSSTAYMELNSLTSEDSAVYFCARPIYFDNDYFDYWGQGTTLKVSS
VL: TIVLTQSPASLAVSLGQRATISCRASESVDSYGNSFMHWYQQKPGQPPKLLIYLASNLESGVPARFSGSGSRTDFTLTIDPVEADDAATYYCQQNNYDPWTFGGGTKLEIK
B3: human chimeric CLL-1 antibody ChiG4 (antibody, V domains shown)
VH: EVQLQQSGPELVKPGASMKISCKASGYSFTGYTMNWVKQSHEKNLEWIGPINPYNDGTIYNPNFKGKATLTVDKASSTAYMELLSLTSDDPAVYYCARTDDYDDYTMDYWGQGTSVTVSS
VL: EIQMTQTPSSLSASLGDRVTISCRASHDISNYLNWYQQKPDGTLKLLIYYTSRLHSGVPSRFSGSGSGTDYSLTISNLEQEDIATYFCQQGKTLLWTFGGGTKLEIK
B4: CLL-1 antibody clone M29 (antibody, IgG1, V domains shown)
VH: EVQLQQSGPELVKPGASVKMSCKASGYIFTSYVMYWVKQKPGQGLEWIGYINPYNDGTKYNEKFKGKATLTSDKSSSTAYMELSSLTSEDSAVYYCARYYDYDYYFDYWGQGTTLTVSS
VL: DIQMTQSPSSLSASLGGKVTITCKASQDINKYIAWYQHKPGKGPRLLIHYTSTLQPGIPSRFSGSGSGRDYSFSISNLEPEDIATYYCLQYDYLWTFGGGTKLEIK
B5: CLL-1 antibody clone G12 (antibody, IgG1, V domains shown)
VH: QVQLQQPGAELVKPGASMKMSCKASGYTFPSSNIHWLKQTPGQGLEWIGVIYPGNGDTSYNQKFKDKATLTTDKSSSTAYMQLSSLTSEDSAIYFCARVYNWHFDVWGAGTTVTVSS
VL: NIVLTQSPASLAVSLGQRATISCRASESVDGYGDIFMLWYQQKPGQPPKLLIYFASNLESGVPARFSGSGSRTDFTLTIDPVEADDAATYYCQQNNEDPYTFGGGTKLEIKR
B6: CLL-1 antibody clone M26 (antibody, V domains shown)
VH: B1 VH
VL: B1 VL
notes: Conjugated to saporin in the ADC assays
B7: CLL-1 antibody clone M2 (antibody, IgG1, V domains shown)
VH: B1 VH with Q5R, I34M, S58T, S84N, G104D
VL: B1 VL with T26S, L29I, G31V, K60E, N65S, I93S
B8: CLL-1 antibody clone M31 (antibody, IgG2a, V domains shown)
VH: B2 VH
VL: B2 VL
B9: CLL-1 antibody clone G4 (antibody, IgG1, V domains shown)
VH: B3 VH
VL: B3 VL
notes: also called 31.G4; 31G4
B10: CLL-1 antibody clone M5 (antibody, IgG2a, V domains shown)
VH: EVQLQQSGAELVRPGASVKLSCTASGFNIKDDYIHWVKQRPEQGLEWIGWIDPEKGDTAYASKFQDKATITSDTSSNTAYLQLSSLTSEDTAVYYCTLTGRFDYWGQGTTLTVSS
VL: DIVMSQSPSSLAVSVGEKVTMSCKSSQSLLYSSNQKNNLAWYQQKPGQSPKLLIYWASTRESGVPDRFTGSGSGTDFTLTISSVQAEDLAVYYCQQYYSYRTFGGGTKLEIK
B11: CLL-1 antibody clone M22 (antibody, IgG2a, V domains shown)
VH: QVQLQQPGAELVKPGASVKLSCKASGYTFTRYWMHWVKQRPGQGLEWIGNIDPSDTETHYNQQFKDKATLTVDKSSSTAYMQLSSLTSEDSAVYYCAIYYGNPSYYAMDYWGQGTSVTVSS
VL: DIVMTQSPSSLTVTAGEKVTMSCKSSQNLLNSGNQKKYLNWYQQKPGQPPKLLIYWASTRESGVPDRFTGSGSGTDFTLTISSVQAEDLAVYFCQNDYSYPFTFGAGTKLELK

For the first test, the target named is T1, human C type Lectin Like molecule 1 …. Put plainly: cell-based or functional assay.
As to B1, the “ADCC EC50 (Promega ADCC Reporter Assay)” value is 0.079 µg/mL.

In the case of B2, the “ADCC EC50 (Promega ADCC Reporter Assay)” value is 0.143 µg/mL.

Turning to B3, the “ADCC EC50 (Promega ADCC Reporter Assay)” value turned out to be 0.105 µg/mL.

For a further test the target is unchanged. Put plainly: cell-based or functional assay. The source holds these as a separate data set.
In the case of B4, the “ADC EC50 (pM), saporin-conjugated antibody, cell viability” value (“ADC EC50 (pM)” below) amounted to 91.4 pM.

As to B5, the “ADC EC50 (pM)” value came out at 19.4 pM.

Take B6: the “ADC EC50 (pM)” value was 90.2 pM.

On to B7, for which the “ADC EC50 (pM)” value was determined as 20.9 pM.

Regarding B8, the “ADC EC50 (pM)” value came to 34.3 pM.

Take B9: the “ADC EC50 (pM)” value stood at 44.4 pM.

Consider B10, for which the “ADC EC50 (pM)” value came out at 150 pM.

For a further test the target is unchanged. Put plainly: cell-based or functional assay. This is another data set of the same source.
On to B8, for which the “CDC (% killing), 10 ug/mL antibody, primary AML cells” value (shortened to “CDC (% killing), 10 ug/mL antibody”) was determined as 12.1%.

For the molecule B11, the “CDC (% killing), 10 ug/mL antibody” value was 14.5%.

Regarding B10, the “CDC (% killing), 10 ug/mL antibody” value came to 17.9%.

For another test the target is unchanged. Put plainly: FACS, HL60 AML cell line. For orientation: In flow cytometry, cells or beads pass a laser one at a time.
For the molecule B4, the “% of live cells with antibody binding” value turned out to be 84.6%.

Regarding B5, the “% of live cells with antibody binding” value amounted to 88.3%.

On to B7, for which the “% of live cells with antibody binding” value is 90.3%.

Turning to B8, the “% of live cells with antibody binding” value was 91%.

In the case of B11, the “% of live cells with antibody binding” value was 37.2%.

Regarding B9, the “% of live cells with antibody binding” value was found to be 83.2%.

As for B10, the “% of live cells with antibody binding” value came to 1.7%.

The next test has the same target. In words: FACS, OCI AML-5 AML cell line.
In the case of B4, the “% of live cells with antibody binding” value was found to be 87.6%.

Regarding B7, the “% of live cells with antibody binding” value was 96.3%.

On to B8, for which the “% of live cells with antibody binding” value was determined as 89.7%.

With B11, the “% of live cells with antibody binding” value came out at 57.6%.

Take B9: the “% of live cells with antibody binding” value turned out to be 83.2%.

Turning to B10, the “% of live cells with antibody binding” value was found to be 2.3%.

The next test shares this target. Put plainly: FACS, primary AML patient cells, Group 1.
Consider B5, for which the “positive patient samples / total tested” value is 2 of 2 patient samples.

For the molecule B7, the “positive patient samples / total tested” value was 2 of 2 patient samples.

On to B9, for which the “positive patient samples / total tested” value is 2 of 2 patient samples.

For a further test the target is unchanged. Put plainly: FACS, recombinant 293 cells expressing human CLL-1.
As for B4, the “% of live cells with antibody binding” value turned out to be 99.9%.

Take B5: the “% of live cells with antibody binding” value came to 99.9%.

On to B7, for which the “% of live cells with antibody binding” value stood at 99.9%.

As to B8, the “% of live cells with antibody binding” value was found to be 76%.

Regarding B11, the “% of live cells with antibody binding” value was found to be 97%.

For B10, the “% of live cells with antibody binding” value was found to be 1.1%.

The target of the next test is T2, C lectin domain of CLL-1 expressed in …. Put plainly: binding to 293T cells expressing the C lectin domain of CLL-1.
With B6, the binding result is on record as “no binding”.

As to B8, the binding result was “no binding”.

For another test, the target named is T3, biotinylated CLL-1 (hCLL-1). Put plainly: biotinylated CLL-1 on streptavidin sensor tips; antibody at 10, 30, 90 ug/ml; global 1:1 fit.
One may read the Kd as the constant that tells how readily two partners part at equilibrium. Consider B4, for which the Kd was found to be 1.48 nM.

With B5, binding was characterised by a dissociation constant (Kd) of 0.07 nM.

As to B6, binding was put at a Kd of 0.214 nM.

In the case of B7, the Kd turned out to be 0.205 nM. This Kd and that of the molecule before are within 1.5-fold of each other.

Molecule B8 had a Kd of 0.611 nM.

B11 displayed a dissociation constant (Kd) of 0.388 nM.

B9 showed a dissociation constant (Kd) of 0.053 nM.

B10 showed an equilibrium dissociation constant (Kd) of 0.553 nM.
